These results are taken from publication PMC7371702.

In assay [1] the target is YFP-tagged α7 nicotinic acetylcholine receptor (human CHRNA7 with YFP fused into the M3-M4 loop) (human) (UniProt P36544).
Assay [2] shares this target. This is another data set of the same source.

Chain of UniProt P36544 (P36544 23-502): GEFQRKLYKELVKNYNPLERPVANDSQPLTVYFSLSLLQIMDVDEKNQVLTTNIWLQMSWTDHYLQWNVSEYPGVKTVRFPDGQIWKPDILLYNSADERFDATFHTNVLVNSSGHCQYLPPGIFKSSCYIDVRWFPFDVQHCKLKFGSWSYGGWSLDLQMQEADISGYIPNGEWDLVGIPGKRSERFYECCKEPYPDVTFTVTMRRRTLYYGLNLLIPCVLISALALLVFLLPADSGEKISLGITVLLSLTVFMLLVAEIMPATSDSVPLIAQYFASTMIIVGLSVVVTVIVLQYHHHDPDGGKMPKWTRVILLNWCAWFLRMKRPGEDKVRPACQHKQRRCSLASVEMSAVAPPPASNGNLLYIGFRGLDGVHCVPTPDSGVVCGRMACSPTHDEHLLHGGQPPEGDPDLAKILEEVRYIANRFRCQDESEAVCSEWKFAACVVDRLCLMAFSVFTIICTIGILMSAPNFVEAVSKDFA

B1: Soluble streptavidin-binding peptide (SBP)-tagged mouse Ly6H (natural protein)
chain: LWCQDCTLANSSHCAPKQCQPTDTVCASVRITDPSSSRKDHSVNKMCASSCDFVKRHFFSDYLMGFINSGILKVDVDCCEKDLCN
Turning to B1, the inhibition of ligand-evoked α7 nAChR current in TARO cells by exogenously added soluble Ly6H-SBP (2.5 μM) in assay [1] worked out at 14%. Besides, the inhibitory ratio: post-stimulation peak amplitude divided by pre-stimulation peak amplitude of choline (30 μM) + PNU120596 (1 μM)-evoked current in TARO cells, 2.5 μM soluble protein applied for 3 min in assay [2] came to 82.7%.

B2: Soluble SBP-tagged mouse Ly6H R38A mutant (natural protein)
chain: LWCQDCTLANSSHCAPKQCQPTDTVCASVRITDPSSSAKDHSVNKMCASSCDFVKRHFFSDYLMGFINSGILKVDVDCCEKDLCN
B2: in assay [2], the inhibitory ratio: post-stimulation peak amplitude divided by pre-stimulation peak amplitude of choline (30 μM) + PNU120596 (1 μM)-evoked current in TARO cells, 2.5 μM soluble protein applied for 3 min stood at 100%.
